Laboratory results: PMC6016249

Target: α1-subunit of steroid C-25 dehydrogenase 1 (S25DH1), recombinant from Thauera aromatica K172 (Sterolibacterium denitrificans)
Assay: co-purification (ion exchange and dye-affinity chromatography, SDS-PAGE); nontagged subunits coproduced in T. aromatica K172; soluble extract, anaerobic DEAE-Sepharose then Reactive Red 120, active fractions followed; SDS-PAGE, bands of S25DH1 identified by ESI-QTOF-MS of tryptic digests

Sequence of α1-subunit of steroid C-25 dehydrogenase 1 (S25DH1), recombinant from Thauera aromatica K172 (Sterolibacterium denitrificans) (main, as listed by the source): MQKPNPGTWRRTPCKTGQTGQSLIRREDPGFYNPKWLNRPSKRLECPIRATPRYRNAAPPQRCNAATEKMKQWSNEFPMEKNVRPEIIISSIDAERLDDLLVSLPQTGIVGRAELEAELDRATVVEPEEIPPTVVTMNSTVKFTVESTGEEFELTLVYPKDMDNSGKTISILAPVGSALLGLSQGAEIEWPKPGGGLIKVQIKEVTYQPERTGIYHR

Substance	stoichiometry N
γ3-subunit of steroid C-25 dehydrogenase, recombinant from Thauera aromatica K172 (natural protein)	1 γ3 per α1
β3-subunit of steroid C-25 dehydrogenase, recombinant from Thauera aromatica K172 (natural protein)	1 β3 per α1
